Reference: US20160137746A1, “METHODS FOR TREATING HIGH CARDIOVASCULAR RISK PATIENTS WITH HYPERCHOLESTEROLEMIA” (Sanofi Biotechnology, priority 2014, published 2016)

Test system: high cardiovascular risk patients with hypercholesterolemia
Settings: in vivo
Procedure: Safety assessments during both studies were as follows. Safety was assessed through adverse event (AE) reporting (including adjudicated cardiovascular events), laboratory analyses, and vital signs measurement. Since the LDL-C-lowering effects of PCSK9 inhibition on top of a statin are unknown, a number of AEs were defined as being of special interest and were monitored, including alanine aminotransferase abnormalities, allergic events, hemolytic anemia, pregnancy, overdose with study drug, neurologic events, ophthalmic events, and local injection site reactions.
Safety Analyses were as follows. AEs (including adjudicated cardiovascular events), laboratory parameters, and vital signs were reported descriptively, based on the safety population (all randomized patients who received at least 1 dose or partial dose of study treatment). The safety analysis focused on the treatment-emergent AE period defined as the time from the first double-blind dose to the last double-blind dose of the investigational product +70 days (10 weeks).
The safety population included all randomized patients who received at least one dose or part of a dose of the double-blind IMP.
Safety analyses were descriptive, performed on the safety population according to treatment actually received. For analysis of TEAE and PCSA, the safety analysis focused on the TEAE period defined as the time from the first dose of double-blind IMP administration (capsule or injection, whichever comes first) up to 70 days after the last double-blind injection.

Alirocumab: human anti-PCSK9 antibody; HCVR SEQ ID NO:1, LCVR SEQ ID NO:6; CDRs SEQ ID NOs 2/3/4/7/8/10
TEAE preferred term: Upper respiratory tract infection: 31 (6.5) | TEAE system organ class: Infections and infestations: 130 (27.1)
